Data as given in publication PMC6304933.

Molecular target: Thermosynechococcus elongatus BP-1 Fed2 (Thermosynechococcus elongatus BP-1)
Experiment: SDS/PAGE

stoichiometry N: 2
Substance: Thermosynechococcus elongatus BP-1 Fed2 (natural protein)
